According to PMC4620443, “Screening and Identifying a Novel ssDNA Aptamer against Alpha-fetoprotein Using CE-SELEX”:

T1: alpha-fetoprotein (AFP) (UniProt P02771 19-609)
T1 sequence: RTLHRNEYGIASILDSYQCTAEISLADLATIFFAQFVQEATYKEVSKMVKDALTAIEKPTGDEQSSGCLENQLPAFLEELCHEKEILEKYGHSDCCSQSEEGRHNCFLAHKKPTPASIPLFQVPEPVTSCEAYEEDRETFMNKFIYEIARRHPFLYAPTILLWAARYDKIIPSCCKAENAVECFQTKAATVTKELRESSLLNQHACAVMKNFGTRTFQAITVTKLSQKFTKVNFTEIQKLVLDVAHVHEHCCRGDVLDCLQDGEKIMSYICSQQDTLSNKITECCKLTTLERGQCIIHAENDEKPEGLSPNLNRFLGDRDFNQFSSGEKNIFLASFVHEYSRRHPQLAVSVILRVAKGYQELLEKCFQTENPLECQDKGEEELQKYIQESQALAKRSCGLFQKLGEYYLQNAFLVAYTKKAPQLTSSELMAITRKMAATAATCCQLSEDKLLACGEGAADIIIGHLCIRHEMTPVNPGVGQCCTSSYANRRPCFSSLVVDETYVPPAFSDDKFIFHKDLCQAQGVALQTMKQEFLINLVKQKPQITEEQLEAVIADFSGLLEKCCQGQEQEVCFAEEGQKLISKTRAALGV


Molecular target: T1, alpha-fetoprotein (AFP)
Assay: capillary electrophoresis (CE-LIF); CE-LIF: 10 uM FAM-aptamer with 100 ug/ml AFP, 25 C, PVA-coated capillary, -8 kV with 0.5 psi; CE buffer composition and pH not given in the material
Conditions: protein: commercial; label: 5' 6-FAM

Binder	Kd	binding result
AP273 (ssDNA) DNA: GTGACGCTCCTAACGCTGACTCAGGTGCAGTTCTCGACTCGGTCTTGATGTGGGTCCTGTCCGTCCGAACCAATC	500 nM	
AP244 (ssDNA) DNA: GTGACGCTCCTAACGCTGACGGCCCGTCAATCCCCGCGTATCCATTGGTCCTTTACCTGTCCGTCCGAACCAATC	4800 nM	
AP206 (ssDNA) DNA: GTGACGCTCCTAACGCTGACTTTTAATTCTTGTTTATTGGTATATCCGCCTCTGACCTGTCCGTCCGAACCAATC		binds
AP250 (ssDNA) DNA: GTGACGCTCCTAACGCTGACACAGTTGCTAAGAGCCGCCTCTGAACCTATCGAGGCCTGTCCGTCCGAACCAATC		binds
AP211 (ssDNA) DNA: GTGACGCTCCTAACGCTGACTTTTTGGGAATGCGTATGTATGCTCGCCACGTACGCCTGTCCGTCCGAACCAATC		no binding
